Measurements taken from US11654198B2, “Application of combination of polyethylene glycol and local anesthetic in non-narcotic analgesia” (JENKEM TECHNOLOGY CO., LTD. (TIANJIN), priority 2016, dated 2023).

Experiments:
[1] = tested on: SD rats; experiment: Hot plate paw withdrawal time, rat sciatica model, intervertebral disc compression (SNL) (Example 32); type: in vivo; conditions: for time the analgesic effect can reach: conjugate 10/11/12 at 32/24/48 mg/kg
Text: Intervertebral disc compression (SNL): This model is a pathological form that simulates clinical disc herniation. The specific method is to remove the autogenous caudal intervertebral disc tissue (annulus fibrosus and nucleus pulposus) form the rats and place the caudal intervertebral disc tissue between the proximal nerve root of the L5 dorsal root ganglion and the lower vertebral body to directly compress the L5 nerve root, wherein damage to the L5 nerve root or dorsal root ganglion should be avoided during the operation. 3 to 15 days after the model is successful, rats develop significant hyperalgesia, so the administration time we chose is between 3 days and 15 days.
Qualified rats are randomly divided into 5 groups, 6 rats in each group, which are labeled as groups G1, G2, G3, G4 and G5, respectively. Administration by intramuscular injection around sciatic nerve is adopted, and the grouping information of the experimental animals is shown in Table 11.
Sensory block (hot plate paw withdrawal time): The sensory block of the rat is examined by a hot plate method, and the hot plate is heated to (56±1)° C., and one of the hind paws of the rat is placed on the hot plate, the other hind paw is in the laboratory room temperature condition, and the tested paw withdrawal time is observed and recorded. The average value of two to three times measured is recorded as a pain threshold. In order to avoid the damage of the experimental animal body, if the rat has no paw withdrawal in the hot plate experiment for more than 15 s, the paws should be removed from the hot plate, and the experimental result is recorded as 15 s. The time point for determining the withdrawal time of the hot plate is before administration, and 0.5 h, 1 h, 2 h, 4 h, 6 h, 8 h, 12 h, and 24 h after administration.

[2] = tested on: SD rats; experiment: Motor block four-level score, rat plantar incision model (Example 31); type: in vivo; parameters: key to motor function score: 1 = normal paw movement to 4 = complete loss of movement with gait defect; conditions: for motor function score: bupivacaine 8, conjugate 10/11/12 32/24/48 mg/kg; for effect on motor function of SD rats: conjugate 10/11/12 at 32/24/48 mg/kg
Description: After SD rats inhale anesthesia (isoflurane), an incision of about 1 cm in length from the proximal end of the pelma to the toe is made: after the skin and fascia are cut, the plantar muscle is picked up with an ophthalmic forceps and cut longitudinally (maintaining the starting and ending point and attachment of muscles); pressing is carried out for hemostasis, physiological saline and test drugs are injected into the muscles of animal's legs, and then the pain threshold detection is performed by the hot plate method. Within 24 hours after the model is successful, the rats develop significant hyperalgesia. Qualified rats are randomly divided into 5 groups, 6 rats in each group, which are labeled as groups G1, G2, G3, G4 and G5, respectively. The plantar subcutaneous injection method for administration is used, and the grouping information of the experimental animals is shown in Table 8.
(§1) Motor block (four-level score): The exercise condition of each group of rats is evaluated by the motor block four-level scoring method. The scoring criteria are: paws can be dorsiflexed, stretched, valgus and other normal exercises, scored by 1 point; paws can be dorsiflexed, bendable or after the adduction, although the paws can be stretched, the stretching ability is weakened, scored by 2 points; the paws can perform dorsiflexion, but no longer has the ability to stretch, scored by 3 points; the paws completely lose the ability of dorsiflexion, curling and stretching, and the rats produce a gait defect, scored by 4 points. The time point for measuring the motor block score is before administration, and 0.5 h, 1 h, 2 h, 4 h, 6 h, 8 h, 12 h, and 24 h after administration.

[3] = tested on: SD rats; experiment: Motor block four-level score (Example 30); type: in vivo, rat; parameters: key to motor function score: 1 = normal motor function to 4 = complete loss with gait defect; conditions: for motor function score: direct injection around sciatic nerve, conjugate 10/11/12 at 32/24/48 mg/kg (as bupivacaine); for effect on motor function of SD rats: conjugate 10 at 32 mg/kg, conjugate 11 at 24 mg/kg; for motor scores at different time points versus vehicle group: direct injection, conjugate 10/11/12 at 32/24/48 mg/kg
Description: Male Sprague-Dawley rats are used in the study, about 230-250 g when accepted, and acclimated for at least 7 days prior to the experiment. Two rats are raised in each cage and fed freely with feed and water. The environmental conditions of the breeding room are 23±2° C., and the relative humidity is 40% to 70%, alternating 12 hours of light and dark. […] The qualified rats are randomly divided into 4 groups, 4 rats in each group, which are labeled as groups G1, G2, G3, and G4, respectively. Administration by direct injection in the sciatic nerve is adopted, and with the rat's back facing up, the drug is injected around the right sciatic nerve trunk between the right hip and the right thigh.
as §1, with “can be stretched after the adduction, the stretching” for “can be stretched, the stretching”, “points; the paw can perform” for “points; the paws can perform”

[4] = 0 h (after surgery, before administration), bupivacaine 8, conjugate 10/11/12 32/24/48 mg/kg
[5] = 0.5 h after intramuscular injection around sciatic nerve, bupivacaine 8, conjugate 10/11/12 32/24/48 mg/kg
[6] = 1 h after intramuscular injection around sciatic nerve, bupivacaine 8, conjugate 10/11/12 32/24/48 mg/kg
[7] = 2 h after intramuscular injection around sciatic nerve, bupivacaine 8, conjugate 10/11/12 32/24/48 mg/kg
[8] = 4 h after intramuscular injection around sciatic nerve, bupivacaine 8, conjugate 10/11/12 32/24/48 mg/kg
[9] = 6 h after intramuscular injection around sciatic nerve, bupivacaine 8, conjugate 10/11/12 32/24/48 mg/kg
[10] = 8 h after intramuscular injection around sciatic nerve, bupivacaine 8, conjugate 10/11/12 32/24/48 mg/kg
[11] = 12 h after intramuscular injection around sciatic nerve, bupivacaine 8, conjugate 10/11/12 32/24/48 mg/kg
[12] = 24 h after intramuscular injection around sciatic nerve, bupivacaine 8, conjugate 10/11/12 32/24/48 mg/kg
[13] = before surgery, bupivacaine 8, conjugate 10/11/12 32/24/48 mg/kg (as bupivacaine)
[14] = bupivacaine 8, conjugate 10/11/12 32/24/48 mg/kg

Row | Molecule | hot plate paw withdrawal time [1, 4] [s] | hot plate paw withdrawal time [1, 5] [s] | hot plate paw withdrawal time [1, 6] [s] | hot plate paw withdrawal time [1, 7] [s] | hot plate paw withdrawal time [1, 8] [s] | hot plate paw withdrawal time [1, 9] [s] | hot plate paw withdrawal time [1, 10] [s] | hot plate paw withdrawal time [1, 11] [s] | hot plate paw withdrawal time [1, 12] [s] | hot plate paw withdrawal time [1, 13] [s] | time the analgesic effect can reach [1] [h] | motor function score ([2]; 0 h (before administration)) | motor function score ([2]; 0.5 h) | motor function score ([2]; 1 h) | motor function score ([2]; 2 h) | motor function score ([2]; 4 h) | motor function score ([2]; 6 h) | motor function score ([2]; 8 h) | motor function score ([2]; 12 h) | motor function score ([2]; 24 h) | further results
1 | 8-Arm-PEG-Bupivacaine, 20K [bupivacaine conjugate 11] | 2.14 | 7.43 | 8.49 | 9.10 | 8.31 | 7.10 | 1.97 | 2.71 | 2.76 | 5.15 | ≥ 6 | 1 ± 0 | 1 ± 0 | 1 ± 0 | 1 ± 0 | 1 ± 0 | 1 ± 0 | 1 ± 0 | 1 ± 0 | 1 ± 0 | time after administration at which hot plate paw withdrawal time is significantly higher than vehicle group [1, 14]: ≤ 6 h; effect on motor function of SD rats [2]: does not affect the motor function; motor function score ([3]; 0 h (before administration)): 1 ± 0; motor function score ([3]; 0.5 h): 1 ± 0; motor function score ([3]; 1 h): 1 ± 0; motor function score ([3]; 2 h): 1 ± 0; motor function score ([3]; 4 h): 1 ± 0; motor function score ([3]; 6 h): 1 ± 0; motor function score ([3]; 8 h): 1 ± 0; motor function score ([3]; 12 h): 1 ± 0; motor function score ([3]; 24 h): 1 ± 0; effect on motor function of SD rats [3]: does not affect the motor function; motor scores at different time points versus vehicle group [3]: not significantly different
2 | CCCCN1CCCCC1C(=O)Nc1c(C)cccc1C (centres unmarked) [bupivacaine] | 2.28 | 7.39 | 9.22 | 2.81 | 1.89 | 1.78 | 1.95 | 2.43 | 1.72 | 5.40 |  | 1 ± 0 | 1 ± 0 | 1.75 ± 0.5 | 1.75 ± 0.5 | 1.75 ± 0.5 | 1.75 ± 0.5 | 1.75 ± 0.5 | 1 ± 0 | 1 ± 0 | 
3 | 8-Arm-PEG-Bupivacaine, 20K [bupivacaine conjugate 12] | 1.89 | 8.13 | 7.21 | 6.12 | 2.98 | 2.91 | 2.18 | 1.85 | 2.56 | 5.51 | 2 | 1 ± 0 | 1 ± 0 | 1 ± 0 | 1 ± 0 | 1 ± 0 | 1 ± 0 | 1 ± 0 | 1 ± 0 | 1 ± 0 | time after administration at which hot plate paw withdrawal time is significantly higher than vehicle group [1, 14]: ≤ 2 h; effect on motor function of SD rats [2]: does not affect the motor function; motor function score ([3]; 0 h (before administration)): 1 ± 0; motor function score ([3]; 0.5 h): 1 ± 0; motor function score ([3]; 1 h): 1 ± 0; motor function score ([3]; 2 h): 1 ± 0; motor function score ([3]; 4 h): 1 ± 0; motor function score ([3]; 6 h): 1 ± 0; motor function score ([3]; 8 h): 1 ± 0; motor function score ([3]; 12 h): 1 ± 0; motor function score ([3]; 24 h): 1 ± 0; motor scores at different time points versus vehicle group [3]: not significantly different
4 | 8-Arm-PEG-Bupivacaine, 20K [bupivacaine conjugate 10] | 2.41 | 6.52 | 10.12 | 11.43 | 9.83 | 8.10 | 6.91 | 1.96 | 2.18 | 4.98 | 8 | 1 ± 0 | 1 ± 0 | 1.75 ± 0.5 | 1.75 ± 0.5 | 1.75 ± 0.5 | 1.75 ± 0.5 | 1.75 ± 0.5 | 1 ± 0 | 1 ± 0 | effect on motor function of SD rats [2]: does not affect the motor function; motor function score ([3]; 0 h (before administration)): 1 ± 0; motor function score ([3]; 0.5 h): 1 ± 0; motor function score ([3]; 1 h): 1.75 ± 0.5; motor function score ([3]; 2 h): 1.75 ± 0.5; motor function score ([3]; 4 h): 1.75 ± 0.5; motor function score ([3]; 6 h): 1.75 ± 0.5; motor function score ([3]; 8 h): 1.75 ± 0.5; motor function score ([3]; 12 h): 1 ± 0; motor function score ([3]; 24 h): 1 ± 0; effect on motor function of SD rats [3]: does not affect the motor function; motor scores at different time points versus vehicle group [3]: not significantly different
